Data published in patent publication CN118525034A (INTERVET INT BV, dated 2024).

T1: 犬IL-31RA ECD-10His (犬 (canine))
T1 chain: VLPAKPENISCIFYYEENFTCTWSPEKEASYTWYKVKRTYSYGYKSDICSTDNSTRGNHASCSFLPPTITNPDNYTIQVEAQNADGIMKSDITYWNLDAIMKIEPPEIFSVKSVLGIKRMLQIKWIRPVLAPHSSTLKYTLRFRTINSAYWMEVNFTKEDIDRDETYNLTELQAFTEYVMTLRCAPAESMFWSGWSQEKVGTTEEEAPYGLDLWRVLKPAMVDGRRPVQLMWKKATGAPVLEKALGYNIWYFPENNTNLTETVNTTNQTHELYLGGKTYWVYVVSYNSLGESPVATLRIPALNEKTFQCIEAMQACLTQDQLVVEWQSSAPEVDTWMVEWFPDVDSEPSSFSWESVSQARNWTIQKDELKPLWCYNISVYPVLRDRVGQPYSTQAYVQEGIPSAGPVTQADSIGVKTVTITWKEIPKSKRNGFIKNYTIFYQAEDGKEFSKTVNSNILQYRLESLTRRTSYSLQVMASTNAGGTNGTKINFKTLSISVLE


Columns and labels:
[1] = biological target: 犬IL-31RA ECD-10His (犬 (canine)); assay: ELISA, IL-31RA ECD coated at 1 µg/mL, biotinylated canine IL-31 titrated, HRP-streptavidin
犬IL-31RA ECD-10His [2] = biological target: T1, 犬IL-31RA ECD-10His; assay: Octet BLI, biotinylated canine IL-31RA on SA biosensor, mAb 100-3.13 nM, 1:1 model
犬IL-31RA ECD-10His [3] = biological target: T1, 犬IL-31RA ECD-10His; assay: Octet BLI; upper end of the range, tied to 85C10 by Table 2
犬IL-31RA ECD-10His [4] = biological target: T1, 犬IL-31RA ECD-10His; assay: Octet BLI, biotinylated canine IL-31RA on SA biosensor
犬IL-31RA ECD-10His [5] = biological target: T1, 犬IL-31RA ECD-10His; assay: Octet BLI; lower end of the range, tied to 224G3 by Table 2

Row | Molecule | EC50 [1] [ng/mL] | Kd (犬IL-31RA ECD-10His [2]) [nM] | koff (犬IL-31RA ECD-10His [2]) [s⁻¹] | kon (犬IL-31RA ECD-10His [2]) [M⁻¹ s⁻¹] | Kd (犬IL-31RA ECD-10His [3]) [nM] | Kd (犬IL-31RA ECD-10His [4]) [nM] | Kd (犬IL-31RA ECD-10His [5]) [nM]
1 | 犬IL-31 (ligand) | 0.55 | – | – | – | – | – | –
2 | 65G9 (antibody, V domains shown) VH: EFQLQQSGPELVKPGASVKISCKASGYSFTDYGMNWLKQINGKSLEWIAIINPNYGTASSNPKFKDKATLTVDHSSSTAYMQLSSLTSEDSAVYYCARAFDGYYFYWYFDVWGTGTTVTVSS VL: SIVMTQTPKFLLVSAGDRVTITCKASQSVTNDVTWYQQKPGQSPKLLIFSASNRYTGVPDRFTGSGYGTDFTFTISTVQAEDLAVYFCQQDYSSPWTFGGGTKLEIK | – | 0.451 | 0.000355 | 787000 | – | – | –
3 | 51F8 (antibody, V domains shown) VH: EVQLQQSVAELVRPGASVKLSCTASGFNIKNTFIHWVKQRPEQGLEWIGRIDPANGNTKYAPKFQGRATLTADTSSNTAYLQLSSLTSEDTAIYYCARYYYVSSYFDVWGTGTTVTVSS VL: SIVMTQTPKFLLVSAGDRVTITCKASQSVTNDVTWYQQKPGQSPKLLIYYASNRYTGVPDRFTGSGYGTDFTFTISTVQAEDLAVYFCQQDYSSPFTFGSGTKLEIK | – | 0.207 | 0.000141 | 684000 | – | ~0.2 | –
4 | 209G5 (antibody, V domains shown) VH: EVQLQQSVAELVRPGASVKLSCTASGFNIKNTYMHWVKERPEQGLEWIGRIDPANGNSKYAPKFQGKATITTDTSSNTAYLQLSSLTSEDTAIYYCARYYYVSSHFDVWGTGTTVTVSS VL: DIKMTQSPSSMYASLGERVTITCKASQDINSYLNWFQQKPGKSPKTLIYRADRLVDGVPSRFSGSGSGQDYSLTISSLEYEDMGIYYCLQYDEFPLTFGDGTKLELN | – | 0.131 | 4.87e-05 | 370000 | – | – | –

Results, then the molecule that gave them:

Row | EC50 [1] [ng/mL] | Kd (犬IL-31RA ECD-10His [2]) [nM] | koff (犬IL-31RA ECD-10His [2]) [s⁻¹] | kon (犬IL-31RA ECD-10His [2]) [M⁻¹ s⁻¹] | Kd (犬IL-31RA ECD-10His [3]) [nM] | Kd (犬IL-31RA ECD-10His [4]) [nM] | Kd (犬IL-31RA ECD-10His [5]) [nM] | Molecule
5 | – | 0.851 | 0.000363 | 427000 | 0.85 | – | – | 85C10 (antibody, V domains shown) VH: EFQLQQSGPELVKPGASVKISCKASGYSFTDYSINWVKQSNGKSLEWIGVINPNYGTSSHNQKFKGKATMTVDQSSSTAYMQLNSLTSEDSAVYYCARALDDYYFYWYFDVWGIGTTVTVSS VL: DVVMTQTPLSLPVSLGDQASISCRSSQSLIHTNGNTYLHWYLQKPGQSPKLLIYKVSNRFSGVPDRFSGSGSGTDFTLKISRLEAEDLGVYFCSQSTHVPLTFGAGTKLELR
6 | – | 0.0698 | 4.63e-05 | 664000 | – | ~0.07 | – | 218D9 (antibody, V domains shown) VH: QVTLKESGPGILQPSQTLSLTCSFSGFSLSTFGRGVGWIRQPSGKGLDWLTHIWWDDDKYYNPALKSRLTISKDTSKNQVFLKIANVDTADTATYYCARIAGGLRRAPYAMDSWGQGTSVTVSS VL: DVVMTQTPLSLPVSLGDQASISCRSSQSLVHTNGNTYLHWYLQKPGQSPKLLIYKVSNRFSGVPDRFSGSGSGTDFTLKISRVEAEDLGVYFCSQTTHVPLTFGAGTKLELK
7 | – | 0.000964 | 1.08e-06 | 1.12e+06 | – | – | 0.001 | 224G3 (antibody, V domains shown) VH: EVQLVESGGDLVKPGGSLKLSCAASGFTFSSYGMSWVRQTPDKRLEWVATISNGGSYTYYPDSVKGRFTISRDNAKNTLYMQMSSLKSEDTAMYYCARNEPPDYWGQGTSVTVSS VL: DIQMTQSPASLSVSVGETVTITCRASENIYSSLAWYQQKQGKSPQLLVYAATNLADGVPSRFSGSGSGTQYSLKINSLQSEDSGNYYCQHFRDTPPTFGGGTKLEIK
